Assay results taken from article PMC12638876 (Nature Communications, 2025).

Tests used:
split reporter = target: the molecule itself; test: split reporter
crystal structure = target: the molecule itself; test: crystal structure

B1: CXE15 C14D fused to split YFP (enzyme, Arabidopsis thaliana, UniProt Q9FG13 1-329, looked up)
chain: MGSLGEEPQVAEDDMGLLQLLSNGTVLRSESIDLITQQIPFKNNQTVLFKDSIYHKPNNLHLRLYKPISASNRTALPVVVFFHGGGFCFGSRSWPHFHNFCLTLASSLNALVVSPDYRLAPEHRLPAAFEDAEAVLTWLWDQAVSDGVNHWFEDGTDVDFDRVFVVGDSSGGNIAHQLAVRFGSGSIELTPVRVRGYVLMGPFFGGEERTNSENGPSEALLSLDLLDKFWRLSLPNGATRDHHMANPFGPTSPTLESISLEPMLVIVGGSELLRDRAKEYAYKLKKMGGKRVDYIEFENKEHGFYSNYPSSEAAEQVLRIIGDFMNNLS
For B1, the “fold reduction of BiFC fluorescence against wild-type CXE15” value (split reporter) was greater than 2 fold.

B2: CXE15 E271Q mutant (enzyme, Arabidopsis thaliana, UniProt Q9FG13 1-329, looked up)
chain: MGSLGEEPQVAEDCMGLLQLLSNGTVLRSESIDLITQQIPFKNNQTVLFKDSIYHKPNNLHLRLYKPISASNRTALPVVVFFHGGGFCFGSRSWPHFHNFCLTLASSLNALVVSPDYRLAPEHRLPAAFEDAEAVLTWLWDQAVSDGVNHWFEDGTDVDFDRVFVVGDSSGGNIAHQLAVRFGSGSIELTPVRVRGYVLMGPFFGGEERTNSENGPSEALLSLDLLDKFWRLSLPNGATRDHHMANPFGPTSPTLESISLEPMLVIVGGSQLLRDRAKEYAYKLKKMGGKRVDYIEFENKEHGFYSNYPSSEAAEQVLRIIGDFMNNLS
modifications: disulphide bond between the two Cys14 residues in the crystal
B2: binds (crystal structure).
